In PMC4797271, “The quorum-sensing regulator ComA from Bacillus subtilis activates transcription using topologically distinct DNA motifs” (Nucleic Acids Research, 2015):

Molecular target: T1, sigma-factor σ^A from Bacillus subtilis (Bacillus subtilis W168, UniProt P06224 1-371)
T1 construct: RNA polymerase sigma factor A (house-keeping sigma factor), Bacillus subtilis W168; gene amplified from the chromosome and cloned into pBAD18; also called house-keeping sigma-factor σ^A; σ^A-subunit of RNAP; source: E. coli, pBAD18, purified on Ni-NTA columns
T1 sequence (P06224 whole entry): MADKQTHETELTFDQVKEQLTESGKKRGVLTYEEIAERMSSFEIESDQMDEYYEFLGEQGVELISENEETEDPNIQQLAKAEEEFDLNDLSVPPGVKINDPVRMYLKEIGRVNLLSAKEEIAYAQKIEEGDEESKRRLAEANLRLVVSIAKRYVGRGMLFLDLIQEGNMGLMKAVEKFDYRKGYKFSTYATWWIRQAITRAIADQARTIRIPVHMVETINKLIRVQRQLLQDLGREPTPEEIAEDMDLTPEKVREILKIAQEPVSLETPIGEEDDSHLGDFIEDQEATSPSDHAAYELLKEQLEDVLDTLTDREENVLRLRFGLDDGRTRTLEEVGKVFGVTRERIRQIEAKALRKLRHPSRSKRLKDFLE
Assay: native gel or EMSA; super-shift of ComA-bound biotinylated rapA promoter DNA (ComA at full occupancy) on adding α or σ^A; 10 mM HEPES pH 7.6, 2 mM MgCl2, 0.1 mM EDTA, 200 mM KCl, 5 mM DTT, 10% glycerol; 20 min at room temperature; native 8% polyacrylamide gel, 0.5x TBE
Conditions: both partners purified

B1: ComA from Bacillus subtilis (His6-tagged ComA protein) (natural protein, Bacillus subtilis W168, UniProt P14204 1-214, looked up)
chain: MKKILVIDDHPAVMEGTKTILETDSNLSVDCLSPEPSEQFIKQHDFSSYDLILMDLNLGGEVNGMELSKQILQENPHCKIIVYTGYEVEDYFEEAIRAGLHGAISKTESKEKITQYIYHVLNGEILVDFAYFKQLMTQQKTKPAPSSQKEQDVLTPRECLILQEVEKGFTNQEIADALHLSKRSIEYSLTSIFNKLNVGSRTEAVLIAKSDGVL
notes: Transcription factor ComA, Bacillus subtilis W168; gene amplified from the chromosome and cloned into pBAD18; At full occupancy the rapA promoter probably carries more than one dimer; also called recombinant His6-tagged ComA; source: E. coli, pBAD18, purified on Ni-NTA columns; not shown: His6, N-terminal, kept
binding result: binds
